In US20160058848A1:
Where a chain is given by its changes, count along the chain named.

Assays:
[1] = biological target: T1, human corin variant Q568P, Q9Y5Q5
T1 chain: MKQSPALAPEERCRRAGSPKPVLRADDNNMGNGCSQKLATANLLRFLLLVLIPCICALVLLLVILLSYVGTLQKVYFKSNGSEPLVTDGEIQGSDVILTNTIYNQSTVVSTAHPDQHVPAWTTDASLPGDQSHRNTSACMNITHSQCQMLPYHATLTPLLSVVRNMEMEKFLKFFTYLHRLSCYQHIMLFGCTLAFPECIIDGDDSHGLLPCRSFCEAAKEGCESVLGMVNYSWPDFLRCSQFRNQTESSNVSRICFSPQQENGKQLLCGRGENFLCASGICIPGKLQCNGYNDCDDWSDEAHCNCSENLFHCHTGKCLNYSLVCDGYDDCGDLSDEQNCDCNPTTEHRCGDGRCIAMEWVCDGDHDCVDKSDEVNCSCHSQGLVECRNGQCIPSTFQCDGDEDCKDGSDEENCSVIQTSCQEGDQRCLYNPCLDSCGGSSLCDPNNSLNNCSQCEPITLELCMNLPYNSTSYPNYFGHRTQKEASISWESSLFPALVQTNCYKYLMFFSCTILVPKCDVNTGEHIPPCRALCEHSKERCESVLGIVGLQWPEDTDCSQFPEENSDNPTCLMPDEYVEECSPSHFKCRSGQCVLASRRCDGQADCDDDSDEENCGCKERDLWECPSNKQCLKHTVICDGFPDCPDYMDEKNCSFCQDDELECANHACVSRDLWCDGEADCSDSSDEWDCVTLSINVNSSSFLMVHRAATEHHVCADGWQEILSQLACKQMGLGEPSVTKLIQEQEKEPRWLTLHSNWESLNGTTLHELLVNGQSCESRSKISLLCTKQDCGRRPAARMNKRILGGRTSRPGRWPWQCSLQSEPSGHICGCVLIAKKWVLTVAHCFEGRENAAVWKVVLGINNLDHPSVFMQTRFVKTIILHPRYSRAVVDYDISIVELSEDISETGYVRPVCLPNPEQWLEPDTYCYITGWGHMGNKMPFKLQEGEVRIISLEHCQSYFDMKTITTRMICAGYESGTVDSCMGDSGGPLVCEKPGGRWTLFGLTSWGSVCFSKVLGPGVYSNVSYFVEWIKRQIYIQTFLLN

[2] = biological target: T2, human corin variant T555I, Q9Y5Q5
T2 chain: T1 chain with T555I, P568Q

[3] = biological target: T3, human corin mutant R801A, Q9Y5Q5
T3 chain: T1 chain with P568Q, R801A

B1: recombinant human proprotein convertase subtilisin/kexin-6 (PCSK6) with a C-terminal flag tag (protein)
chain: QVRSDPQALYFNDPIWSNMWYLHCGDKNSRCRSEMNVQAAWKRGYTGKNVVVTILDDGIERNHPDLAPNYDSYASYDVNGNDYDPSPRYDASNENKHGTRCAGEVAASANNSYCIVGIAYNAKIGGIRMLDGDVTDVVEAKSLGIRPNYIDIYSASWGPDDDGKTVDGPGRLAKQAFEYGIKKGRQGLGSIFVWASGNGGREGDYCSCDGYTNSIYTISVSSATENGYKPWYLEECASTLATTYSSGAFYERKIVTTDLRQRCTDGHTGTSVSAPMVAGIIALALEANSQLTWRDVQHLLVKTSRPAHLKASDWKVNGAGHKVSHFYGFGLVDAEALVVEAKKWTAVPSQHMCVAASDKRPRSIPLVQVLRTTALTSACAEHSDQRVVYLEHVVVRTSISHPRRGDLQIYLVSPSGTKSQLLAKRLLDLSNEGFTNWEFMTVHCWGEKAEGQWTLEIQDLPSQVRNPEKQGKLKEWSLILYGTAEHPYHTFSAHQSRSRMLELSAPELEPPKAALSPSQVEVPEDEEDYTAQSTPGSANILQTSVCHPECGDKGCDGPNADQCLNCVHFSLGSVKTSRKCVSVCPLGYFGDTAARRCRRCHKGCETCSSRAATQCLSCRRGFYHHQEMNTCVTLCPAGFYADESQKNCLKCHPSCKKCVDEPEKCTVCKEGFSLARGSCIPDCEPGTYFDSELIRCGECHHTCGTCVGPGREECIHCAKNFHFHDWKCVPACGEGFYPEEMPGLPHKVCRRCDENCLSCAGSSRNCSRCKTGFTQLGTSCITNHTCSNADETFCEMVKSNRLCERKLFIQFCCRTCLLAG
- PCSK6-mediated activation cleavage (Western blot, densitometry) [1]: PCSK6-mediated activation cleavage was detected in corin WT and variants T555I or Q568P, but not variant T555I/Q568P
- PCSK6-mediated activation cleavage (Western blot, densitometry) [2]: PCSK6-mediated activation cleavage was detected in corin WT and variants T555I or Q568P, but not variant T555I/Q568P
- PCSK6-mediated activation cleavage (Western blot, densitometry) [3]: In controls, no activation cleavage was detected in mutant R801A lacking the cleavage site
